Laboratory results from US10905653B2, “Sequentially decomposable polypeptide-based nanocarriers with protective shell and preparation thereof” (National Tsing Hua University, priority 2016, dated 2021).
Counter-ions that a name gives are not always drawn. No end group written: not given here.

Legend:
[1] = system: human breast adenocarcinoma cells MDA-MB-231; assay: Cell viability assay (MTS assay), anti-tumor activity; type: cell-based; settings: 10 μg/ml DOX equivalent, 24 hours treatment
Protocol: The anti-tumor activity of the drug-loaded polypeptide-based nanocarrier with protective shell of the present invention was evaluated in this example by cell viability assay (MTS assay) on human breast adenocarcinoma cells MDA-MB-231 cells. The cells were seeded in a 96-well plate (5×10^3 cells/well) and cultured in L-15 medium supplemented with 10% FBS and 1% penicillin and streptomycin at 37° C. for 1 day. Next, the medium was removed, and cells were treated with 100 μl L-15 medium containing DOX.HCl, the DOX-loaded polypeptide-based nanocarriers with protective shell of calcium phosphate and with LyP-1 peptide (M-DOX NP w/LyP-1), or the DOX-loaded polypeptide-based nanocarriers with protective shell of calcium phosphate and without LyP-1 peptide (M-DOX NP w/o LyP-1) at concentrations equivalent to 10 μg/ml DOX for 24 hours. The cells were rinsed with PBS 2 times and incubated with L-15 medium supplemented with 10% FBS and 1% penicillin and streptomycin at 37° C. for 24 hours, 48 hours, or 72 hours. To carry out the cell viability assay, the medium was first discarded from the 96-well plate, 10 μl MTS solution and 90 μl L-15 medium were added for incubation at 37° C. for 2.5 hours, and the solution was transferred to a new 96-well plate for measurement of light absorption at 490 nm. The assay was repeated 3 times.

[2] = TNBS assay, acidic hydrolysis of the cis-aconityl linkage; type: physicochemical
Protocol: TNBS (2,4,6-trinitrobenzene sulfonic acid) assay was performed in this example to analyze the acidic hydrolysis of the cis-aconityl linkage in the polypeptide-based long chain copolymer in conditions of different pH values. TNBS reacts with primary amines to yield a soluble orange colored product. Since PEG3400 released from hydrolyzed PEG3400-aconitic acid carries a free amine group at the end, the hydrolysis level of PEG3400-aconitic acid at different pH values is determined based on the amount of the colored product formed in TNBS assay. PEG3400-aconitic acid (2 mg/ml) was first dissolved in deionized water with a pH value of 5.0, 6.5, or 7.4 for hydrolysis. The hydrolysis reactions of 3 hours, 6 hours, 12 hours, and 24 fours were stopped by adjusting the pH value of the PEG3400-aconitic acid hydrolysate solutions to 8.2 and freezing. Sodium bicarbonate was added to the abovementioned hydrolysate solutions to a final concentration of 0.1 M (pH 8.2), and a 5% w/v TNBS solution was then added for reaction at 37° C. for 1 hour. The reaction was terminated using 1.0 N HCl, so that the volume ratio of the PEG3400-aconitic acid hydrolysate solution, the TNBS solution, and HCl was 4:2:1. Absorbance of the reaction-terminated solutions at 335 nm was measured with an enzyme-linked immunosorbent assay (ELISA) reader (Victor X3 2030 Multilabel Reader, PerkinElmer, Waltham, Mass., USA). According to the standard curve obtained from amine samples with known concentration, free amine group of PEG3400 in the reaction-terminated solutions was quantified and the hydrolysis level of PEG3400-aconitic acid at each pH was calculated.

| Compound | viability of the breast adenocarcinoma cells ([1]; kept incubated for 72 hours) [%] | viability of the breast adenocarcinoma cells ([1]; first time point, post-incubation time not given) [%] | breakage of the cis-aconityl linkage ([2]; pH 5, within 12 hours) [%] | breakage of the cis-aconityl linkage ([2]; pH 6.5, within 12 hours) [%] | breakage of the cis-aconityl linkage ([2]; pH 6.5, within 24 hours) [%] | breakage of the cis-aconityl linkage ([2]; pH 7.4, within 12 hours) |
| --- | --- | --- | --- | --- | --- | --- |
| COc1cccc2c1C(=O)c1c(O)c3c(c(O)c1C2=O)C[C@@](O)(C(=O)CO)C[C@@H]3O[C@H]1C[C@H](N)[C@H](O)[C@H](C)O1 [DOX.HCl, doxorubicin hydrochloride] | 5.4 | 14.3 | – | – | – | – |
| PEG3400-aconityl linkage-polypeptide E15-H10-L10 (EEEEEEEEEEEEEEEHHHHHHHHHHLLLLLLLLLL; also: PEG3400 via aconityl linkage, site not given here) [polypeptide-based long chain copolymer] | – | – | 43.33 | 13.28 | 21 | about 1.97% |
